Source: publication PMC5805628

Target: EGFR co-transfected into Q293 cells (UniProt P00533)
Experiment: co-IP

With “TROY CRD2 (from UniProt Q9NS68 30-423) (receptor)” the amount in the anti-EGFR immunoprecipitate, normalized to wild type TROY was 0.43.
“TROY CRD3 (from UniProt Q9NS68 30-423) (receptor)” gave an amount in the anti-EGFR immunoprecipitate, normalized to wild type TROY of 0.83.
